Reference: US20200148765A1 (OSAKA UNIVERSITY, published 2020)

T1: crab-eating macaque CLDN-5 protein (crab-eating macaque, UniProt O00501 1-218 (human entry))
T1 construct: Expressed on cells by retrovirus; also called cCLDN-5; MDCKII/cCLDN-5
T1 chain: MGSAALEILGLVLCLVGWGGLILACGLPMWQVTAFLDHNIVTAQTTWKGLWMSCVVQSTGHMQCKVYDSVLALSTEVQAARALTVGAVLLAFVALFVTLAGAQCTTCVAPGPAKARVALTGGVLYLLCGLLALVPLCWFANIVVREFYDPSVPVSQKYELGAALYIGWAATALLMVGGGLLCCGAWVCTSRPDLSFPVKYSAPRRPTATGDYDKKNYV

T2: mCLDN-1 protein (mouse, UniProt O88551 1-211)
T2 construct: Expressed on cells by retrovirus; also called mouse Claudin-1 protein
T2 sequence: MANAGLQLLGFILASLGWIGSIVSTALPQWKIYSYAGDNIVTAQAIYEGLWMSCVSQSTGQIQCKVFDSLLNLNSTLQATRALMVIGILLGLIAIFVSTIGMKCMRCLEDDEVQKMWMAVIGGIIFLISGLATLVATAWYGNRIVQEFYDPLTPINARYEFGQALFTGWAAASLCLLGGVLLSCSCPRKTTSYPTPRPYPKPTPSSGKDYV

T3: mCLDN-2 protein (mouse, UniProt O88552 1-230)
T3 construct: Expressed on cells by retrovirus; also called mouse Claudin-2 protein
T3 sequence: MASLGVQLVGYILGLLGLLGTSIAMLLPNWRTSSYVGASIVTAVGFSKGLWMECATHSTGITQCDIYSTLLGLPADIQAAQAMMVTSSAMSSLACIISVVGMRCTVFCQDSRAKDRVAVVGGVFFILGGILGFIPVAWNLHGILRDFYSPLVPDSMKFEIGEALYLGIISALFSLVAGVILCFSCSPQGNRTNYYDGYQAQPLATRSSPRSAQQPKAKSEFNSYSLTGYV

T4: mCLDN-3 protein (mouse, UniProt Q9Z0G9 1-219)
T4 construct: Expressed on cells by retrovirus; also called mouse Claudin-3 protein
T4 sequence: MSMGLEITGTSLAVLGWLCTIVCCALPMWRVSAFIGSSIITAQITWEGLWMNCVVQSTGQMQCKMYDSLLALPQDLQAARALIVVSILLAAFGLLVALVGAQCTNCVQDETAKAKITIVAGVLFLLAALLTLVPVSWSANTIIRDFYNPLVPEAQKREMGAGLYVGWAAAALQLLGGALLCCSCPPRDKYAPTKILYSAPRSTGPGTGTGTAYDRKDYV

T5: wild-type human CLDN-5 protein (human, UniProt O00501 1-218)
T5 construct: Four-transmembrane tight junction protein expressed by retrovirus on HT-1080 (or MDCKII) cells; also called hCLDN-5; human Claudin-5 protein
T5 sequence: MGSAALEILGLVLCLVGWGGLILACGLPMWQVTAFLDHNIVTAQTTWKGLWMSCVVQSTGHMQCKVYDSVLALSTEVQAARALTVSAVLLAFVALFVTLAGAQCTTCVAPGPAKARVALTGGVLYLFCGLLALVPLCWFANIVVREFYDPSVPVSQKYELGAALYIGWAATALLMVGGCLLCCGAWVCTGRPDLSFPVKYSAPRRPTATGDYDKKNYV

T6: mouse CLDN-5 protein (mouse, UniProt O54942 1-218)
T6 construct: Expressed on cells by retrovirus; also called mCLDN-5; MDCKII/mCLDN-5
T6 sequence: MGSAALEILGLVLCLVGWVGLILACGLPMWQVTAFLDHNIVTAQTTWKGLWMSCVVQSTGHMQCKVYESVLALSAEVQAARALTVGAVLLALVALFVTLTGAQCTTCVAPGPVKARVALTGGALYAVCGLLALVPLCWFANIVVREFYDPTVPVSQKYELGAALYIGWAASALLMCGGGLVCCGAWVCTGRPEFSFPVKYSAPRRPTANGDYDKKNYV


What was measured:
[1] = target: T1, crab-eating macaque CLDN-5 protein; assay: FACS on CLDN-5-expressing cells, antibody 5 µg/mL
Method: (§1) The obtained CLDN-expressing cells were seeded in a 10 cm dish, and on the next day, the cells were collected. The primary antibodies (100 μL) were added to the obtained 1.0×10⁵ cells and allowed to react for 1 hour at 4° C. At this time, a mixed solution of a C-CPE mutant (C-CPEmt) and a mouse anti-His tag antibody (Abeam) used in Non-Patent Literature 3 was used as positive control. The cells were washed three times with 0.2% BSA-PBS, then mixed with 100 μL of a secondary antibody solution (FITC conjugated goat anti-mouse IgG or anti-rat IgG (Jackson Immune Research, 115-095-003 or 112-095-003) 400x diluted with 1% BSA-PBS, and allowed to react for 1 hour at 4° C. The cells were washed with 0.2% BSA-TBS and then analyzed using FACS caliber (BD Bioscience).
In the same manner as in Example 1-2), a DNA fragment consisting of a cCLDN-5 protein (SEQ ID NO: 28)-encoding sequence or an mCLDN-5 protein (SEQ ID NO: 29)-encoding sequence was inserted into a pCX4pur vector, thereby obtaining vectors for preparing a retrovirus. By using these vectors with the vector for preparing a retrovirus prepared in Example 1-2), various animal species CLDN-5 protein-expressing cells were prepared. By using these cells and the antibodies (antibody concentration: 5 μg/mL, as primary antibody), FACS assay was performed in the same manner as in 3-1).

mCLDN-1 protein = target: T2, mCLDN-1 protein; assay: FACS, hybridoma supernatant on CLDN-expressing cells
From the text: (§2) By the insertion of a DNA fragment consisting of an hCLDN-1 protein (SEQ ID NO: 30)-encoding sequence, an hCLDN-2 protein (SEQ ID NO: 31)-encoding sequence, an hCLDN-3 protein (SEQ ID NO 32)-encoding sequence, an hCLDN-4 protein (SEQ ID NO: 33)-encoding sequence, an hCLDN-6 protein (SEQ ID NO: 34)-encoding sequence, an hCLDN-7 protein (SEQ ID NO: 35)-encoding sequence, an mCLDN-1 protein (SEQ ID NO: 37)-encoding sequence, an mCLDN-2 protein (SEQ ID NO: 38)-encoding sequence, an mCLDN-3 protein (SEQ ID NO: 39)—encoding sequence, or an mCLDN-5 protein (SEQ ID NO: 29)-encoding sequence, vectors for preparing a retrovirus were obtained. By using these vectors and the vector for preparing a retrovirus prepared in Example 1-2), various CLDN protein-expressing cells were prepared. By using these cells and a culture supernatant of hybridomas producing antibodies as primary antibodies, FACS assay was performed by the following method.
as §1

mCLDN-2 protein = target: T3, mCLDN-2 protein; assay: as above
From the text: as §2, §1

mCLDN-3 protein = target: T4, mCLDN-3 protein; assay: as above
From the text: as §2, §1

[2] = target: T5, wild-type human CLDN-5 protein; assay: FACS saturation binding on HT-1080/hCLDN-5, one-site fit; Lot 1
Method: as §1
(§3) By using HT-1080/hCLDN-5 and 100 μL of the anti-CLDN-5 antibody at each concentration diluted with 1.0% BSA-PBS, FACS assay was performed in the same manner as in Example 3-1). […] At this time, the equation of saturation binding-one site-specific binding of Graph Pad prism 7 (Graph Pad Software) was used.

[3] = target: T5, wild-type human CLDN-5 protein; assay: FACS saturation binding on HT-1080/hCLDN-5, one-site fit; Lot 2
Method: as §1, §3

mouse CLDN-5 protein = target: T6, mouse CLDN-5 protein; assay: FACS, hybridoma supernatant on CLDN-expressing cells
From the text: as §2, §1

Binder | binding result [1] | binding result (mCLDN-1 protein) | binding result (mCLDN-2 protein) | binding result (mCLDN-3 protein) | Kd [2] [nM] | Kd [3] [nM] | binding result (mouse CLDN-5 protein)
rat anti-CLDN-5 antibody R9 (antibody, rat IgG2b, V domains shown, Hybridoma monoclonal; also called antibody I) VH: QVTLKESGPGILQPSHTLSLTCSFSGFSLNTYGVGVNWIRQPSGKGLEWLASIWWHGKTYINPSLKNRLTVSKDPSNNQAFLEVTNVDPADTATYYCAHARAQLLDYWGQGVMVTVSS VL: DIVMTQTPSSQAVSAGEKVTMSCKSSQSLLYSGDQKNYLAWYQQKPGQSPKLLIYLTSTRESGVPDRFIGSGSGTDFTLTISSVQAEDLADYYCQQHYSYPLTFGSGTKLEI | binds | no binding | no binding | no binding | 3.78 | 2.75 | 
rat anti-CLDN-5 antibody R14 (antibody, rat IgG2a, V domains shown, Hybridoma monoclonal; also called antibody K) VH: QVTLKESGPGILQPSHTLSLTCSFSGFSLSTYGMGVSWIRQPSGKGLEWLASIWWNGRTYTNPSLMSRLTVSKDTSTNQAFLRVTSVETADTATYYCAHTPYDYSNLGWFTYWGQGTLVTVSS VL: DILMTQTPSSQAVSAGEKVTVSCKSSQSLLYSGDQKSYLAWYQQKPGQSPKLLIYLASTRKSGVPDRFIGSGSGTDFTLTISSVQAEDLADYYCQQHYTYPLTFGSGTKLEI | binds | no binding | no binding | no binding | 4.66 | 8.42 | no binding
mouse anti-CLDN-5 antibody M23 (antibody, mouse IgG2b, V domains shown, Hybridoma monoclonal; also called antibody C) VH: EVQLQQSGPVLVKPGPSVMISCKASGFTFTDYYMHWVKQSHGKSLEWIGLVYPYNGGTDYNQKFKGKATLTVDTSSSTAYMELNSLTSEDSAVYYCARCLYDGLYFYAMDYWGQGTSVTVSS VL: DIVMSQSPSSLAVSAGEKVTMTCKSSQSLLNSRARKNYLAWYQQKAGQSPKLLMYWASTRESGVPDRFTASGSGTDFTLTISSVQAEDLAVFYCKQSYNLPWTFGGGTKLEIKR | binds | no binding | no binding | no binding | 3.77 | 2.78 | no binding
rat anti-CLDN-5 antibody R3 (antibody, rat IgG2a, V domains shown, Hybridoma monoclonal; also called antibody G) VH: EVQLVESGGGLVQPGRSLKLSCAASGFTFSDYYMAWVRQAPKKGLEWVASISYEGRNTYYGDSVKGRFTISRDNAKSTLYLQMKSLRSEDTATYYCTRHPRRYFDYWGQGVMVTVSS VL: DIVMTQSPSSLAVSAGETVTMNCRSSQSLFSSGDQKKFLAWYQQKPGQSPKLLISLASTRESGVPDRFIGSGSGTDFTLTINNMQAEDLAIYYCQQHYDIPYTFGAGTKLEL | binds | no binding | no binding | no binding | 7.19 | 2.44 | no binding
rat anti-CLDN-5 antibody R2 (antibody, rat IgG2a, V domains shown, Hybridoma monoclonal; also called antibody F) VH: QVQLKESGPGLVQPSQTLSLTCTVSGLSLIRNSVSWIRQPPGKGLEWMGVIWSNGGTEYNSTVKSRLSISRDTSKNQVFLKMNSLQTEDSAMFFCARTPDGYYPYFDYWGQGVMVTVSS VL: DIVLTQSPATLSVTPGESVSLSCRASQGISTSIHWYQQKSNESPRLLIRYASQSISRIPSRFSGSGSGTDFTLTINGVESEDLSVYYCQQSYNLPLTFGSGTKLEI |  | no binding | no binding | no binding | 20.1 | 20.7 | no binding
mouse anti-CLDN-5 antibody M48 (antibody, mouse IgG3, V domains shown, Hybridoma monoclonal; also called antibody E) VH: QAYLQQSGAELVRPGASVKMSCKASGYTFTSYNMHWVKKTRRQGLEWIGAISPGNGNTSYNQKFKGKATLTVDKSSSTAYMQLSSLTSEDSAVYFCARDDGYYGALDYWGQGTSVTVSS VL: DIVLTQSPATLSVTPGESVSLSCRASQGISTSIHWYQQKSNESPRLLIRYASQSISRIPSRFSGSGSGTDFTLTINGVESEDLSVYYCQQSYNLPLTFGSGTKLEI |  | no binding | no binding | no binding | 29.1 | 8.47 | 
mouse anti-CLDN-5 antibody M11 (antibody, mouse IgG2b, V domains shown, Hybridoma monoclonal; also called antibody B) VH: QVQLKQSGPGLVQPSQSLSITCTVSGFSLIRYGVHWVRQSPGKGLEWLGVKWSGGSTDYNGAFKSRLSISKDNSKSQVFFKMNSLQADDTAIYYCARGLDGYYVPDVWGTGTSVTVS VL: DIVMTQSHKFMSTSVGDRVSITCKASQDVSTNVAWYQQKPGQSPTLLIYWASTRHTGVPDRFTGSGSGTDYTLTISSVQAEDLALYYCQQHYSTPLTFGAGTKLELRR | binds | no binding | no binding | no binding | 8.72 | 9.68 | no binding
mouse anti-CLDN-5 antibody M3 (antibody, mouse IgG2b, V domains shown, Hybridoma monoclonal; also called antibody A) VH: EVQLQQSGPELVKPGASVKISCKASGYSFTGYYMNWVKQSPEKSLEWIGDINPSTGGATYNQKFKAKATLTVDKSSSTAYMQLKSLTSEDSAVFYCALYSNYGFVYWGQGTLVTVSA VL: not shown | binds |  | no binding | no binding | 3.89 | 6.41 | no binding
